Data as given in the supplement of paper PMC9876800.

Tested on: peptide library, one residue held at a place counted from the S/T acceptor
Test: relative phosphorylation of the sub-library (ratio to the mean residue at this position); higher = residue favoured
Procedure, shortened: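 Relative sub-library phosphorylation, a ratio to the mean residue at that position, was obtained by phosphorimaging and densitometry of spots on streptavidin membranes. Before capture, purified recombinant kinases were incubated for 90 min under kinase-specific conditions with 50 μM biotinylated degenerate peptide sub-libraries and 50 μM ATP spiked with γ-32P-ATP. Each sub-library fixed one residue at one position around a central Ser/Thr.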

Sequence of BRSK1, construct: Full length, human (Q8TDC3 whole entry, looked up): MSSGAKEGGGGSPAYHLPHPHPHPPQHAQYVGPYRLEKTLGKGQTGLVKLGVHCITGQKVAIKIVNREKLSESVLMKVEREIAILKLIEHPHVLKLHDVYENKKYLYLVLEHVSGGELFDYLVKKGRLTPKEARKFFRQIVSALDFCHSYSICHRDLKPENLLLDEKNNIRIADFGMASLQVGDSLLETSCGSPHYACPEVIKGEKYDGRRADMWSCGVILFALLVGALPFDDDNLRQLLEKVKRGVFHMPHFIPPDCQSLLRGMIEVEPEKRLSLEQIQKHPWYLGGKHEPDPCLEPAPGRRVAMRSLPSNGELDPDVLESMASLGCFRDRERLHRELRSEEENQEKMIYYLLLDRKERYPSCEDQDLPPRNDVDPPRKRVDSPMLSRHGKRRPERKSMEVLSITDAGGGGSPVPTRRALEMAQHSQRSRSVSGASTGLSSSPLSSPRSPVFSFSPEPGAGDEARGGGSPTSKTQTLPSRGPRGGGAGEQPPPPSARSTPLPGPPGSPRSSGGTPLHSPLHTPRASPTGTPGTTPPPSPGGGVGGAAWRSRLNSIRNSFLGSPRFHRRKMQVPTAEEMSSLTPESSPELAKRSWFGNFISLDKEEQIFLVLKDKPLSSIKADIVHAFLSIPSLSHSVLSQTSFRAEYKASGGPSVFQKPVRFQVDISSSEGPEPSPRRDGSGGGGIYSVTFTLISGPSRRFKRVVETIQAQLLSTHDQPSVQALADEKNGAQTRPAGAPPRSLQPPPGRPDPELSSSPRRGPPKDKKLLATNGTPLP
Sequence of AURKC, construct: Full length, human (Q9UQB9 whole entry, looked up): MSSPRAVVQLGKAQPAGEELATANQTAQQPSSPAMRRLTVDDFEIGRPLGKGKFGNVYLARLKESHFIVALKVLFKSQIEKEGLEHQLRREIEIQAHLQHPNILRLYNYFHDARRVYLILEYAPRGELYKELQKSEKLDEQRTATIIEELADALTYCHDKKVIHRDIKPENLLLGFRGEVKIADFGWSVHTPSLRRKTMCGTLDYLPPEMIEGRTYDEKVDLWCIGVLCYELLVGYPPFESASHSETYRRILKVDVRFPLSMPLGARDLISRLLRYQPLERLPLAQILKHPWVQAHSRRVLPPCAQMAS
Sequence of BMP2K, construct: aa37-345, human (Q9NSY1 37-345, looked up): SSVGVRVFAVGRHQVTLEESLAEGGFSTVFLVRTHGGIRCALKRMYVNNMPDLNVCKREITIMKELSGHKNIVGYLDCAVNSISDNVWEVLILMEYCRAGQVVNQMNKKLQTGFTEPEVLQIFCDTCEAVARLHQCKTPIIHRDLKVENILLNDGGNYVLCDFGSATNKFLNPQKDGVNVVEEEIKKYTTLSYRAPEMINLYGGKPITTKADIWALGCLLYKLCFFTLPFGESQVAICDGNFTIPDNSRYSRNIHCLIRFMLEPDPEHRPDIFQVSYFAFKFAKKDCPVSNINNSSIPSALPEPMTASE
Sequence of ALPK1, construct: aa1-474 and aa959-end, human (Q96QP1 1-474, looked up): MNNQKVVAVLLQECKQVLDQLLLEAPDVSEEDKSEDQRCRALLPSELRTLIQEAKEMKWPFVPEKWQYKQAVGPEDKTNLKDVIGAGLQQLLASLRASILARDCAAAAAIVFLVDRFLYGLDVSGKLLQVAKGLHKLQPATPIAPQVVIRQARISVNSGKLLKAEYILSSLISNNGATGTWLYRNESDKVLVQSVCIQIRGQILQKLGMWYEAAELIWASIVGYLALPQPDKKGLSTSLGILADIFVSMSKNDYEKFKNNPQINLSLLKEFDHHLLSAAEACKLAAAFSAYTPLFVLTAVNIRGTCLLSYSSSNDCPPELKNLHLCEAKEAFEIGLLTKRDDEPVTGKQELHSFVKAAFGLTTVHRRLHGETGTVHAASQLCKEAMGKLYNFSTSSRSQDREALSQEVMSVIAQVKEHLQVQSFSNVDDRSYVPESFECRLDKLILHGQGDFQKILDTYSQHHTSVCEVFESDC

ALPK1, construct: aa1-474 and aa959-end, human (from UniProt Q96QP1)
relative phosphorylation
Settings | at +1 | at +2 | at +3 | at +4 | at -1 | at -2 | at -3 | at -4 | at -5
A fixed | 0.392 | 0.063 | 0.503 | 1.02 | 0.957 | 1.29 | 0.868 | 0.65 | 0.43
D fixed | 0.704 | 0.889 | 1.31 | 1.21 | 2.26 | 1.87 | 2.74 | 2 | 1.61
E fixed | 3.35 | 2.03 | 1.22 | 1.27 | 1.9 | 0.573 | 1.83 | 1.77 | 1.83
F fixed | 0.991 | 1.09 | 1.36 | 1.05 | 0.862 | 0.626 | 0.757 | 1.02 | 0.92
G fixed | 0.404 | 0.704 | 0.365 | 0.933 | 0.798 | 0.731 | 0.687 | 0.798 | 0.812
H fixed | 1.15 | 1.07 | 1 | 1.37 | 0.779 | 0.466 | 1.21 | 1.24 | 0.763
I fixed | 1.27 | 1.14 | 0.752 | 0.378 | 1.16 | 1.02 | 0.608 | 0.848 | 1.02
K fixed | 0.774 | 1.49 | 1.08 | 1.09 | 1.13 | 0.599 | 0.905 | 1.31 | 0.94
L fixed | 0.474 | 1.11 | 1.09 | 0.718 | 0.704 | 1.29 | 0.392 | 0.763 | 0.67
M fixed | 1.63 | 1.38 | 1.49 | 0.671 | 0.979 | 1.13 | 0.9 | 0.651 | 1.14
N fixed | 0.75 | 1.19 | 0.97 | 1.36 | 0.572 | 0.718 | 1.11 | 0.874 | 1.08
P fixed | 0.39 | 1.01 | 0.781 | 1.16 | 0.805 | 1.54 | 0.952 | 1.02 | 0.971
Q fixed | 1.01 | 0.617 | 0.852 | 0.914 | 0.933 | 1.31 | 0.826 | 0.758 | 1.16
R fixed | 1.23 | 0.649 | 0.935 | 0.774 | 0.731 | 0.797 | 1.02 | 1.09 | 1.28
V fixed | 0.557 | 1.08 | 1.06 | 0.914 | 0.569 | 1.09 | 0.694 | 0.547 | 0.996
W fixed | 0.811 | 1.01 | 1.06 | 1.1 | 1.04 | 0.771 | 0.557 | 0.92 | 0.613
Y fixed | 1.11 | 0.478 | 1.17 | 1.06 | 0.826 | 1.18 | 0.944 | 0.741 | 0.762
pThr fixed | 0.485 | 1.34 | 1.32 | 1.94 | 1.71 | 1.9 | 2.27 | 1.42 | 1.5
pTyr fixed | 1.74 | 1.33 | 1.73 | 2.97 | 9.01 | 0.489 | 1.53 | 1.85 | 1.83

AURKC, construct: Full length, human (from UniProt Q9UQB9)
relative phosphorylation
Settings | at +1 | at +2 | at +3 | at +4 | at -1 | at -2 | at -3 | at -4 | at -5
A fixed | 1.01 | 1.38 | 1.08 | 0.973 | 0.816 | 0.333 | 0.832 | 1.25 | 1.46
D fixed | 0.814 | 0.611 | 0.589 | 0.957 | 0.459 | 0.179 | 0.421 | 0.58 | 0.651
E fixed | 0.755 | 0.417 | 0.466 | 0.681 | 0.394 | 0.167 | 0.36 | 0.562 | 0.554
F fixed | 1.06 | 0.746 | 0.893 | 0.763 | 0.505 | 0.206 | 0.451 | 0.634 | 0.678
G fixed | 1.37 | 2.03 | 1.6 | 1.25 | 0.672 | 0.399 | 1.06 | 1.33 | 1.63
H fixed | 1.06 | 1.66 | 1.43 | 1.1 | 0.974 | 0.399 | 1.1 | 0.955 | 1.06
I fixed | 0.852 | 0.592 | 0.605 | 0.684 | 0.406 | 0.25 | 0.402 | 0.623 | 0.63
K fixed | 0.89 | 0.853 | 1.13 | 1.23 | 2.57 | 2.63 | 2.51 | 2.06 | 2.15
L fixed | 1.15 | 0.694 | 0.863 | 0.792 | 0.811 | 0.251 | 0.392 | 0.601 | 0.632
M fixed | 1.57 | 0.705 | 0.719 | 0.803 | 0.727 | 0.248 | 0.52 | 0.741 | 0.664
N fixed | 1.29 | 1.23 | 1.25 | 1.2 | 0.73 | 0.304 | 0.919 | 0.856 | 1.05
P fixed | 0.329 | 1.5 | 1.78 | 1.68 | 1.09 | 0.372 | 1.23 | 1.72 | 1.25
Q fixed | 1.16 | 0.975 | 1.03 | 1.35 | 1.09 | 0.529 | 0.803 | 0.96 | 0.767
R fixed | 1 | 0.962 | 1.08 | 1.13 | 3.72 | 10 | 4.34 | 2.18 | 1.47
V fixed | 0.669 | 0.686 | 0.625 | 0.901 | 0.495 | 0.213 | 0.432 | 0.59 | 0.804
W fixed | 1.08 | 1.03 | 0.961 | 0.859 | 0.526 | 0.233 | 0.674 | 0.69 | 0.852
Y fixed | 0.931 | 0.928 | 0.906 | 0.647 | 1.01 | 0.25 | 0.55 | 0.673 | 0.719
pThr fixed | 1.1 | 0.657 | 0.676 | 1.06 | 0.334 | 0.342 | 0.612 | 0.86 | 0.713
pTyr fixed | 0.648 | 0.502 | 0.631 | 0.801 | 0.398 | 0.209 | 0.52 | 0.629 | 0.535

BMP2K, construct: aa37-345, human (from UniProt Q9NSY1)
relative phosphorylation
Settings | at +1 | at +2 | at +3 | at +4 | at -1 | at -2 | at -3 | at -4 | at -5
A fixed | 0.537 | 1.05 | 0.882 | 0.9 | 0.668 | 0.84 | 1.54 | 1.11 | 0.639
D fixed | 0.361 | 0.974 | 0.763 | 0.733 | 0.467 | 1.22 | 0.575 | 0.621 | 0.453
E fixed | 0.338 | 0.938 | 0.68 | 0.806 | 0.428 | 0.942 | 0.684 | 0.871 | 0.45
F fixed | 0.379 | 0.866 | 0.81 | 0.94 | 1.26 | 0.754 | 0.916 | 0.963 | 0.863
G fixed | 10.2 | 0.959 | 1.4 | 0.987 | 0.76 | 0.579 | 0.812 | 1.04 | 0.565
H fixed | 0.392 | 1.08 | 1.21 | 0.989 | 1.35 | 1 | 0.815 | 0.95 | 0.739
I fixed | 0.351 | 0.716 | 0.716 | 0.769 | 0.852 | 0.713 | 1.26 | 1 | 1.92
K fixed | 0.435 | 0.966 | 1.2 | 1.39 | 1.76 | 0.993 | 0.926 | 1.31 | 0.594
L fixed | 0.349 | 0.699 | 0.841 | 0.801 | 1.17 | 0.96 | 0.901 | 1.15 | 1.39
M fixed | 0.368 | 0.842 | 0.765 | 0.847 | 1.18 | 1.91 | 1.46 | 1.12 | 1.24
N fixed | 0.46 | 1.62 | 1.28 | 1.06 | 0.717 | 1.17 | 0.843 | 0.845 | 0.61
P fixed | 0.674 | 0.802 | 1.01 | 0.988 | 0.846 | 0.485 | 1.34 | 0.868 | 1.13
Q fixed | 0.384 | 1.22 | 1.04 | 1.14 | 0.818 | 2.26 | 1.02 | 1.08 | 1.02
R fixed | 0.605 | 1.37 | 1.51 | 1.54 | 1.36 | 1 | 1.03 | 1.29 | 1.55
V fixed | 0.358 | 0.87 | 0.929 | 0.753 | 0.806 | 0.64 | 1.17 | 0.987 | 1.32
W fixed | 0.431 | 1.06 | 0.963 | 1.26 | 0.984 | 0.676 | 0.832 | 0.81 | 0.794
Y fixed | 0.414 | 0.964 | 1 | 1.1 | 1.58 | 0.872 | 0.897 | 0.977 | 1.73
pThr fixed | 0.4 | 0.715 | 0.663 | 0.527 | 0.427 | 0.528 | 0.634 | 0.638 | 0.583
pTyr fixed | 0.357 | 0.841 | 0.698 | 0.572 | 0.527 | 0.928 | 0.647 | 0.72 | 1.19

BRSK1, construct: Full length, human (from UniProt Q8TDC3)
relative phosphorylation
Settings | at +1 | at +2 | at +3 | at +4 | at -1 | at -2 | at -3 | at -4 | at -5
A fixed | 0.673 | 0.575 | 0.697 | 0.51 | 1.03 | 2.4 | 0.781 | 1.28 | 1.05
D fixed | 0.631 | 0.801 | 2.83 | 0.644 | 0.813 | 0.773 | 0.334 | 0.552 | 0.451
E fixed | 0.649 | 0.672 | 0.947 | 0.556 | 0.748 | 0.6 | 0.374 | 0.678 | 0.494
F fixed | 1.67 | 1.41 | 1.4 | 1.09 | 0.72 | 1.04 | 0.522 | 0.648 | 1.12
G fixed | 0.458 | 0.349 | 0.67 | 0.572 | 1.24 | 1.12 | 0.616 | 1.29 | 0.961
H fixed | 0.966 | 1.64 | 1.02 | 0.623 | 1.08 | 1 | 1.1 | 1.19 | 0.765
I fixed | 0.636 | 0.435 | 0.353 | 3.13 | 0.494 | 0.534 | 0.235 | 0.422 | 0.943
K fixed | 0.703 | 0.256 | 0.669 | 0.597 | 1.24 | 1.25 | 2.41 | 2.03 | 1.25
L fixed | 1.12 | 0.672 | 0.529 | 2.95 | 0.951 | 0.476 | 0.32 | 0.56 | 1.09
M fixed | 3.06 | 0.841 | 0.614 | 1.67 | 1.17 | 0.627 | 0.546 | 0.829 | 1.55
N fixed | 1.08 | 1.1 | 2.82 | 0.835 | 0.94 | 0.902 | 0.596 | 0.699 | 0.637
P fixed | 0.306 | 0.467 | 0.32 | 0.628 | 1.53 | 0.735 | 0.673 | 1.48 | 0.939
Q fixed | 1.18 | 1.13 | 1.15 | 0.714 | 0.996 | 0.734 | 0.755 | 0.985 | 0.829
R fixed | 0.985 | 0.357 | 0.729 | 0.575 | 1.34 | 1.7 | 6.17 | 2.19 | 2.01
V fixed | 0.73 | 0.381 | 0.405 | 0.861 | 0.75 | 1.01 | 0.311 | 0.678 | 0.857
W fixed | 0.787 | 2.02 | 0.804 | 0.59 | 0.696 | 1.12 | 0.667 | 0.774 | 0.911
Y fixed | 1.37 | 3.9 | 1.04 | 0.465 | 1.26 | 0.984 | 0.586 | 0.726 | 1.14
pThr fixed | 1.81 | 0.59 | 0.438 | 0.686 | 0.407 | 0.465 | 0.392 | 0.723 | 0.544
pTyr fixed | 0.633 | 0.948 | 0.928 | 0.475 | 1.75 | 0.606 | 0.657 | 0.678 | 0.776
